Data taken from PMC6881179.

What was measured:
Experiment in all cases: SPR
[1] = biological target: BES1e6BES17e7 chimera (BES1 ESAG6 with BES17 ESAG7) (Trypanosoma brucei) (UniProt Q8WPU1)
[2] = biological target: BES17e6BES1e7 chimera (BES17 ESAG6 with BES1 ESAG7) (Trypanosoma brucei) (UniProt Q8WPU1)
[3] = biological target: BES17 transferrin receptor (glycosylated heterodimer of BES17 ESAG6 and BES17 ESAG7) (Trypanosoma brucei) (UniProt Q8WPU1)
[4] = biological target: BES1 transferrin receptor (glycosylated heterodimer of BES1 ESAG6 and BES1 ESAG7) (Trypanosoma brucei) (UniProt Q8WPU1)

| Substance | Kd [1] [nM] | Kd [2] [nM] | Kd [3] [nM] | Kd [4] [nM] |
| --- | --- | --- | --- | --- |
| human holo-transferrin (from UniProt P02787 20-698) (ligand) | 243 | 353 | 13.1 |  |
| cow transferrin (from UniProt Q29443 20-704) (ligand) |  |  |  | 80.1 |
